In US20240425571A1, “GLYCOPROTEIN A REPETITIONS PREDOMINANT (GARP)-BINDING ANTIBODIES AND USES THEREOF” (OHIO STATE INNOVATION FOUNDATION, priority 2021, published 2024):

System: Ag(−) cell
Test: FACS analysis with Ag(−) cell (non-specific binding)
Conditions: 5 ug/ml
Protocol: Methods—FACS analysis. Cell preparation: Cell were harvested and washed with PBS+2% FBS for one time. Cell density was adjusted to 1.5E6/mL in PBS/2% FBS. Cell were added to 96 U-bottom well plates at 100 μL/well. Antibody samples preparation: Antibody in supernatant was adjusted to 10 μg/mL using PBS+2% FBS, with serial 5 times dilution performed to obtain 3 concentrations of antibody solution. The blank was PBS+2% FBS. Antibody solutions were placed into 96 U-bottom well plates at 100 μL/well in the same arranging pattern as the cell preparation. Incubation: The antibody samples (100 μl) were mixed with the cells (100 μl), and incubated at RT for 1 h, then centrifuged the plate for 3 min at 1000 rpm (swing bucket). The supernatant was pipetted and the cells were washed with PBS+2% FBS for one time. Incubation with the secondary antibody: Cy3-Conjugated AffiniPure Goat Anti-Human IgG was diluted 250× by PBS+2% FBS, and added to the 96 U-bottom well plate with 100 μl/well, then incubated at RT for 30 min. After that, the plate was centrifuged at 1000 rpm for 3 min and the supernatant was pipetted out. The cell was washed with PBS+2% FBS twice. Cells were re-suspended in 200 μl PBS+2% FBS and analyzed on FACS. The MFI of total live cells were used as binding signal.
Methods—heat treatment. Culture supernatant was serial diluted to the indicated concentration of IgG with cell media and heated at 70° C. for 5 mins on a PCR machine, then quickly cooled down to room temperature.

| Molecule | FACS with Ag(−) cell (MFI) (Heating) | FACS with Ag(−) cell (MFI) (Non-Heating) |
| --- | --- | --- |
| H2L3: humanized PIIO-1 antibody, VH SEQ ID NO: 21 and VL SEQ ID NO: 22 (antibody, V domains shown) VH: QVQLQESGPGLVKPSQTLSLTCTVSGYSITSDYAWNWIRQFPGNKLEWMGYISYSGSTSYTPSLKSRITISRDTSKNHFFLKLSSVTAADTAVYYCAKSGGDYYGSSSYWYFDVWGQGTMVTVSS VL: DIVLTQSPSSLAVSAGERVTMSCKSSQSLLNSRSQKNYLAWYQQKPGQPPKLLIYGASTRGSGVPDRFSGSGSGTDFTLTISSVQAEDVAVYYCQNDHSYPFTFGSGTKLEIKR | 3.35 | 3.18 |
| H3L1: humanized PIIO-1 antibody, VH SEQ ID NO: 19 and VL SEQ ID NO: 23 (antibody, V domains shown) VH: DVQLQESGPGLVKPSQTLSLTCTVSGYSITSDYAWNWIRQFPGNKLEWMGYISYSGSTSYTPSLKSRITISRDTSKNHFFLKLSSVTAADTATYYCAKSGGDYYGSSSYWYFDVWGQGTTVTVSS VL: DIVLTQSPSSLAVSLGERATMNCKSSQSLLNSRSQKNYLAWYQQKPGQPPKLLIYGASTRGSGVPDRFSGSGSGTDFTLTISSLQAEDVAVYYCQNDHSYPFTFGQGTKLEIKR | 3.4 | 3.28 |
| H3L3: humanized PIIO-1 antibody, VH SEQ ID NO: 19 and VL SEQ ID NO: 22 (antibody, V domains shown) VH: DVQLQESGPGLVKPSQTLSLTCTVSGYSITSDYAWNWIRQFPGNKLEWMGYISYSGSTSYTPSLKSRITISRDTSKNHFFLKLSSVTAADTATYYCAKSGGDYYGSSSYWYFDVWGQGTTVTVSS VL: DIVLTQSPSSLAVSAGERVTMSCKSSQSLLNSRSQKNYLAWYQQKPGQPPKLLIYGASTRGSGVPDRFSGSGSGTDFTLTISSVQAEDVAVYYCQNDHSYPFTFGSGTKLEIKR | 3.29 | 3.16 |
| H2L2: humanized PIIO-1 antibody, VH SEQ ID NO: 21 and VL SEQ ID NO: 24 (antibody, V domains shown) VH: QVQLQESGPGLVKPSQTLSLTCTVSGYSITSDYAWNWIRQFPGNKLEWMGYISYSGSTSYTPSLKSRITISRDTSKNHFFLKLSSVTAADTAVYYCAKSGGDYYGSSSYWYFDVWGQGTMVTVSS VL: DIVLTQSPSSLAVSLGERVTMNCKSSQSLLNSRSQKNYLAWYQQKPGQPPKLLIYGASTRGSGVPDRFSGSGSGTDFTLTISSVQAEDVAVYYCQNDHSYPFTFGQGTKLEIKR | – | 3.24 |
| H4L3: humanized PIIO-1 antibody, VH SEQ ID NO: 18 and VL SEQ ID NO: 22 (antibody, V domains shown) VH: DVQLQESGPGLVKPSQTLSLTCTVSGYSITSDYAWNWIRQFPGNKLEWMGYISYSGSTSYTPSLKSRITISRDTSKNHFFLQLSSVTAEDTATYYCAKSGGDYYGSSSYWYFDVWGQGTTVTVSS VL: DIVLTQSPSSLAVSAGERVTMSCKSSQSLLNSRSQKNYLAWYQQKPGQPPKLLIYGASTRGSGVPDRFSGSGSGTDFTLTISSVQAEDVAVYYCQNDHSYPFTFGSGTKLEIKR | 3.36 | 3.27 |
| H4L2: humanized PIIO-1 antibody, VH SEQ ID NO: 18 and VL SEQ ID NO: 24 (antibody, V domains shown) VH: DVQLQESGPGLVKPSQTLSLTCTVSGYSITSDYAWNWIRQFPGNKLEWMGYISYSGSTSYTPSLKSRITISRDTSKNHFFLQLSSVTAEDTATYYCAKSGGDYYGSSSYWYFDVWGQGTTVTVSS VL: DIVLTQSPSSLAVSLGERVTMNCKSSQSLLNSRSQKNYLAWYQQKPGQPPKLLIYGASTRGSGVPDRFSGSGSGTDFTLTISSVQAEDVAVYYCQNDHSYPFTFGQGTKLEIKR | 3.29 | 3.26 |
| H4L1: humanized PIIO-1 antibody, VH SEQ ID NO: 18 and VL SEQ ID NO: 23 (antibody, V domains shown) VH: DVQLQESGPGLVKPSQTLSLTCTVSGYSITSDYAWNWIRQFPGNKLEWMGYISYSGSTSYTPSLKSRITISRDTSKNHFFLQLSSVTAEDTATYYCAKSGGDYYGSSSYWYFDVWGQGTTVTVSS VL: DIVLTQSPSSLAVSLGERATMNCKSSQSLLNSRSQKNYLAWYQQKPGQPPKLLIYGASTRGSGVPDRFSGSGSGTDFTLTISSLQAEDVAVYYCQNDHSYPFTFGQGTKLEIKR | 3.25 | 3.11 |
| H3L2: humanized PIIO-1 antibody, VH SEQ ID NO: 19 and VL SEQ ID NO: 24 (antibody, V domains shown) VH: DVQLQESGPGLVKPSQTLSLTCTVSGYSITSDYAWNWIRQFPGNKLEWMGYISYSGSTSYTPSLKSRITISRDTSKNHFFLKLSSVTAADTATYYCAKSGGDYYGSSSYWYFDVWGQGTTVTVSS VL: DIVLTQSPSSLAVSLGERVTMNCKSSQSLLNSRSQKNYLAWYQQKPGQPPKLLIYGASTRGSGVPDRFSGSGSGTDFTLTISSVQAEDVAVYYCQNDHSYPFTFGQGTKLEIKR | 3.26 | 3.37 |
| H1L3: humanized PIIO-1 antibody, VH SEQ ID NO: 20 and VL SEQ ID NO: 22 (antibody, V domains shown) VH: QVQLQESGPGLVKPSQTLSLTCTVSGYSITSDYAWNWIRQFPGNKLEWMGYISYSGSTSYTPSLKSRVTISRDTSKNHFSLKLSSVTAADTAVYYCAKSGGDYYGSSSYWYFDVWGQGTMVTVSS VL: DIVLTQSPSSLAVSAGERVTMSCKSSQSLLNSRSQKNYLAWYQQKPGQPPKLLIYGASTRGSGVPDRFSGSGSGTDFTLTISSVQAEDVAVYYCQNDHSYPFTFGSGTKLEIKR | 3.33 | 3.22 |
